In US20160097044A1, “Antimicrobial Enzyme Fusions Reduce Resistance and Kill Intracellular Staphylococcus aureus” (The United States of America, as Represented by the …, priority 2014, published 2016):

B1: K: 495 amino-acid staphylococcal phage K endolysin LysK, C-terminal His6 tag; SEQ ID NO:3 (protein)
chain: MAKTQAEINKRLDAYAKGTVDSPYRVKKATSYDPSFGVMEAGAIDADGYYHAQCQDLITDYVLWLTDNKVRTWGNAKDQIKQSYGTGFKIHENKPSTVPKKGWIAVFTSGSYEQWGHIGIVYDGGNTSTFTILEQNWNGYANKKPTKRVDNYYGLTHFIEIPVKAGTTVKKETAKKSASKTPAPKKKATLKVSKNHINYTMDKRGKKPEGMVIHNDAGRSSGQQYENSLANAGYARYANGIAHYYGSEGYVWEAIDAKNQIAWHTGDGTGANSGNFRFAGIEVCQSMSASDAQFLKNEQAVFQFTAEKFKEWGLTPNRKTVRLHMEFVPTACPHRSMVLHTGFNPVTQGRPSQAIMNKLKDYFIKQIKNYMDKGTSSSTVVKDGKTSSASTPATRPVTGSWKKNQYGTWYKPENATFVNGNQPIVTRIGSPFLNAPVGGNLPAGATIVYDEVCIQAGHIWIGYNAYNGNRVYCPVRTCQGVPPNQIPGVAWGVFKLEHHHHHH
modifications: C-terminal His6 tag; Phage K
B2: L-K: LysK lytic domains inserted between lysostaphin's M23 endopeptidase domain and SH3b cell wall binding domain; SEQ ID NO:7, protein SEQ ID NO:8 (protein)
chain: MAATHEHSAQWLNNYKKGYGYGPYPLGINGGMHYGVDFFMNIGTPVKAISSGKIVEAGWSNYGGGNQIGLIENDGVHRQWYMHLSKYNVKVGDYVKAGQIIGWSGSTGYSTAPHLHFQRMVNSFSNSTAQDPMPFLKSAGYGKAGGTVTPTPNTGLDAKTQAEINKRLDAYAKGTVDSPYRVKKATSYDPSFGVMEAGAIDADGYYHAQCQDLITDYVLWLTDNKVRTWGNAKDQIKQSYGTGFKIHENKPSTVPKKGWIAVFTSGSYEQWGHIGIVYDGGNTSTFTILEQNWNGYANKKPTKRVDNYYGLTHFIEIPVKAGTTVKKETAKKSASKTPAPKKKATLKVSKNHINYTMDKRGKKPEGMVIHNDAGRSSGQQYENSLANAGYARYANGIAHYYGSEGYVWEAIDAKNQIAWHTGDGTGANSGNFRFAGIEVCQSMSASDAQFLKNEQAVFQFTAEKFKEWGLTPNRKTVRLHMEFVPTACPHRSMVLHTGFNPVTQGRPSQAIMNKLKDYFIKQIKNYMDKGTSSSTVVKDGKTSSASLDTVTPTPNTGWKTNKYGTLYKSESASFTPNTDIITRTTGPFRSMPQSGVLKAGQTIHYDEVMKQDGHVWVGYTGNSGQRIYLPVRTWNKSTNTLGVLWGTIKLEHHHHHH
modifications: Staphylococcus simulans & Phage K

Assays:
S. aureus strain ALR = experiment: Rat nasal colonization model; type: in vivo, Wistar rats; settings: for reduction of nasal bacterial load (in words): equimolar concentrations, intranasally twice a day on days 5, 6, 7
Description: FIGS. 1a-1c depict peptidoglycan hydrolase construct schematics, resistance development and effectiveness in eradicating S. aureus carriage in a rat colonization model. FIG. 1a is a schematic of the peptidoglycan hydrolase constructs. Domains: CHAP endopeptidase (CHAP, red box); N-acetylmuramoyl-L-alanine amidase (AMID, green box); M23 endopeptidase (PEP, blue oval); CBDs (LysK SH3b, gold diamond; lysostaphin SH3b, gold diamond with dot); protein transduction domain (PTD, blue circle); hexahistidine purification tag (His6). Domains are not to scale. Specific peptidoglycan cut sites are illustrated in FIG. 3a. FIG. 1b depicts in vitro antimicrobial resistance development. Engineered triple fusions K-L and L-K suppress antimicrobial resistance development compared to LysK (K), lysostaphin (L), or a combination of equimolar concentrations of both (L+K). Changes in Minimum Inhibitory Concentrations (MIC) are depicted as a fold-change at the tenth round of sublethal exposure compared to the first exposure, with the average fold-change of 4 replicates in red. Error bars=SEM. First exposure MICs: Lysostaphin, 0.77 μg/ml (27 nM); LysK, 47 μg/ml (840 nM); Lysostaphin and LysK (L+K) in combination 0.2 μg/ml (7 nM and 3 nM, respectively); triple fusion K-L, 7 μg/ml (97 nM); triple fusion L-K, 7.8 μg/ml (107 nM). FIG. 1c depicts reduction in colonization in a rat nasal carriage model. Rats were inoculated with S. aureus strain ALR on Day 1. After 5 days, the rats were treated twice daily for 3 days with 20 μl of a 10 mg/ml solution of each enzyme. The rat noses were excised on day 10, homogenized, and quantitative cultures were performed. Each point represents the CFU recovered from an individual rat. Bars indicate the median CFU/nose recovered from treated rats. […] Data were compiled from five independent experiments. Lyso=commercially purchased lysostaphin (AMBI, Tarrytown, N.Y.). Statistical comparisons were made with the Mann-Whitney test. SEQ ID NOs of depicted peptidoglycan hydrolase constructs: Lysostaphin (SEQ ID NO:1); Lysostaphin-PTD1-4, 6-12 (SEQ ID NOs:9, 11, 13, 15, 17, 19, 21, 23, 25, 27, 29, respectively); LysK (SEQ ID NO:3); LysK-PTD1-11 (SEQ ID NOs: 31, 33, 35, 37, 39, 41, 43, 45, 47, 49, 51, respectively); LysK-Lysostaphin Fusion K-L (SEQ ID NO:5); K-L-PTD1-4, 6-11 (SEQ ID NOs:53, 55, 57, 59, 61, 63, 65, 67, 69, 71, respectively); Lysostaphin-LysK Fusion L-K (SEQ ID NO:7).
Reduction in nasal colonization was observed when rats were challenged on day 0 with 10^7 CFU S. aureus strain ALR and then treated twice per day on days 5, 6, and 7 with 10 μl of 2% mupirocin calcium ointment (Bactroban Nasal) or petrolatum/softisan placebo. Noses from rats were homogenized and cultured quantitatively on day 10. Each point represents the CFU recovered from an individual rat, and the data were compiled from two independent experiments. Data were analyzed by the Mann-Whitney test, and horizontal lines represent median values. Mupirocin reduced colonization ˜98% compared to the placebo control.
The rat nasal colonization model is an adaptation of the mouse nasal colonization model that we described previously (Schaffer et al. 2006. Infect. Immun. 74:2145-2153). All animal experiments were conducted in accordance with a protocol approved by the appropriate Institutional Animal Care and Use Committees. Wistar rats (5 to 6 wks of age) were obtained from Charles River Laboratories (Wilmington, Mass.) and given food and water ad libitum. The animals were housed two per cage in a modified barrier facility under viral antibody-free conditions. The rats were given drinking water containing streptomycin sulfate (0.5 g/liter; Sigma) 1 day prior to bacterial inoculation and for the course of the experiment. The drinking water and cages were changed three times per week. […]

S. hyicus MP01 = experiment: Minimum Inhibitory Concentration (MIC) assay; type: cell-based, Staphylococcus hyicus; settings: Mastitis isolate S. hyicus MP01
S. aureus strain Newman = experiment: Resistance development, plate lysis repeated exposure method; type: cell-based; settings: not shown
Procedure: For the plate lysis assays, purified enzymes were serially diluted in saline lysis buffer (SLB; 150 mM NaCl 10 mM Tris buffer, pH 7.5) with 15% glycerol, to yield concentrations of 100, 10, 1, and 0.1 pmoles/10 μl. S. aureus Newman was cultivated in tryptic soy broth (TSB) to an OD600 nm=0.4-0.6. The bacterial cells were harvested and diluted to yield a suspension with an OD600 nm of 0.1. Tryptic soy agar (TSA) plates were flooded with 3 ml of the bacterial cell suspension. Excess culture was removed, and the plates were air dried at room temperature for ˜30 min in a laminar flow hood. 10 μl of each peptidoglycan hydrolase dilution was then spotted onto the air-dried lawn, allowed to air dry, and the culture plates incubated overnight at 37° C. The following day, plates were evaluated visually and photographed.
In the Plate lysis method, bacterial cells were scraped from a sub-lethal (not fully cleared) spot from a plate lysis assay (described above), and these ‘exposed’ cells were used to inoculate 5 ml of TSB and grown for 4-6 hours to generate a new culture and lawn for subsequent exposure. Bacteria were passaged in this assay for up to 10 consecutive days, at which time the S. aureus were tested in MIC assays. Plate lysis repeated exposure experiments were performed in duplicate.

Molecule | reduction of nasal bacterial load (in words) (S. aureus strain ALR) | Minimum Inhibitory Conc. (median μg/ml) (S. hyicus MP01) [µg/mL] | increased resistance during 10 rounds of sub-lethal exposure in plate lysis assays (S. aureus strain Newman) | decrease in CFU/nose (nasal colonization) compared to rats treated with buffer (S. aureus strain ALR; 200 μg intranasally twice a day on days 5, 6, 7, noses cultured day 10) [%] | bacterial load reduction relative to either parental enzyme (S. aureus strain ALR; rat nasal decolonization model)
K-L: both LysK lytic domains fused to the N-terminus of lysostaphin; SEQ ID NO:5, protein SEQ ID NO:6 | unable to significantly reduce the bacterial load | 1.8 | no detectable increase in resistance |  | 
L: 247 amino acid mature (secreted) lysostaphin, staphylolytic bacteriocin, C-terminal His6 tag; SEQ ID NO:1 [reference compound] |  | 0.29 | 8 fold |  | 
B1 | unable to significantly reduce the bacterial load | 8.4 | 2 fold |  | 
B2 |  | 0.37 | no detectable increase in resistance | 98 | 5-10 fold
